Reference: paper PMC9684555, “Structure- and computational-aided engineering of an oxidase to produce isoeugenol from a lignin-derived compound” (Nature Communications, 2022)

Key:
purified protein [1] = substrate: COc1cc(CO)ccc1O; experiment: purified protein; assay type: biochemical, Rhodococcus jostii; conditions: 50 mM KPi pH 7.5, O2 co-substrate, 0.05 µM enzyme
purified protein [2] = substrate: CCCc1ccc(O)c(OC)c1; experiment: purified protein; assay type: biochemical, Rhodococcus jostii; conditions: 50 mM KPi pH 7.5, 10% v/v DMSO, 10 µM to 1 mM substrate, O2 co-substrate, 1.0 µM enzyme

B1: EUGO (eugenol oxidase) (Rhodococcus jostii RHA1) (protein)
chain: MTRTLPPGVSDERFDAALQRFRDVVGDKWVLSTADELEAFRDPYPVGAAEANLPSAVVSPESTEQVQDIVRIANEYGIPLSPVSTGKNNGYGGAAPRLSGSVIVKTGERMNRILEVNEKYGYALLEPGVTYFDLYEYLQSHDSGLMLDCPDLGWGSVVGNTLDRGVGYTPYGDHFMWQTGLEVVLPQGEVMRTGMGALPGSDAWQLFPYGFGPFPDGMFTQSNLGIVTKMGIALMQRPPASQSFLITFDKEEDLEQIVDIMLPLRINMAPLQNVPVLRNIFMDAAAVSKRTEWFDGDGPMPAEAIERMKKDLDLGFWNFYGTLYGPPPLIEMYYGMIKEAFGKIPGARFFTHEERDDRGGHVLQDRHKINNGIPSLDELQLLDWVPNGGHIGFSPVSAPDGREAMKQFEMVRNRANEYNKDYAAQFIIGLREMHHVCLFIYDTAIPEAREEILQMTKVLVREAAEAGYGEYRTHNALMDDVMATFNWGDGALLKFHEKIKDALDPNGIIAPGKSGIWSQRFRGQNL
notes: full length, 526 residues, C-terminal His6 tag (pBAD-EUGO-His6x), E. coli NEB10beta; covalent FAD; homodimer; mutants for crystals from His-SUMO fusion, tag cleaved
Km (purified protein [1]): 43.0 ± 2.2 µM | kcat (purified protein [1]): 6.8 ± 0.2 s⁻¹ | Km (purified protein [2]): 3.3 ± 0.9 µM | kcat (purified protein [2]): 0.008 ± 0.0003 s⁻¹
